Broadly, the Kd is the constant that tells how readily two partners part at equilibrium.

This assay addresses Recombinant human IGF-II R (cation-independent mannose-6-phosphate receptor, CI-MPR) (human) (UniProt P11717). Put plainly: SPR. A general note: SPR reads the build-up and loss of mass on a sensor chip optically.
In the case of “cetuximab M6P-glycoform 9 (cetuximab carrying the M6P tetrasaccharide moiety at the Fc glycosylation site) (antibody)”, the Kd worked out at 70.3 nM. The value for “cetuximab M6P-glycoform 10 (cetuximab carrying the bis-phosphorylated heptasaccharide moiety at the Fc glycosylation site) (antibody)” was 29.6 nM. The value for “trastuzumab M6P-glycoform 3 (trastuzumab carrying the M6P tetrasaccharide moiety at the Fc glycosylation site) (antibody)” was 28.6 nM; that for “trastuzumab M6P-glycoform 6 (trastuzumab carrying the M6P-Man3GlcNAc2 glycan at the Fc glycosylation site) (antibody)” was 700 nM. The result for “trastuzumab M6P-glycoform 7 (trastuzumab carrying the bis-phosphorylated heptasaccharide moiety at the Fc glycosylation site) (antibody)” reads 5.4 nM.

The values are drawn from publication PMC9492806.
